In patent publication US6090929, “Protein binding fragments of gravin” (Oregon Health Science University, dated 2000):

Target: recombinant murine RIIα (murine, UniProt P12367)
Assay: in situ overlay of fixed, permeabilized PMA-treated HEL cells with recombinant murine RIIα, immunofluorescence
Experimental: After 1 hr the coverslips were carefully washed in PBS and 0.2% BSA and incubated with either a mixture of FITC conjugated donkey anti-rabbit secondary antibody (1:100 dilution, Jackson ImmunoReasearch Laboratories Inc, West Grove, Pa.) and rhodamine conjugated phalloidin (1 unit/coverslip, Molecular Probes, Inc, Eugene, Oreg.) or secondary antibody alone. […] Prior to incubation with primary antibody, cells were incubated with 80 nM recombinant murine RII for 2 hr and unbound RII removed by washing three times in PBS and 0.2% BSA. […] Control coverslips were treated with the antibody to RII in the absence of exogenous murine RII. Cells were examined using a Leica confocal laser scanning system equipped with a Leitz Fluovert-FU inverted microscope and an argon/krypton laser.
Fixed and permeabilized cells pre-treated with PMA were overlayed with recombinant murine RIIα.

B1: gravin (full length, human; 250 kDa protein of cell lysates) (other)
chain: MGAGSSTEQRSPEQPPEGSSTPAEPEPSGGGPSAEAAPDTTADPAIAASDPATKLLQKNGQLSTINGVAEQDELSLQEGDLNGQKGALNGQGALNSQEEEEVIVTEVGQRDSEDVSERDSDKEMATKSAVVHDITDDGQEENRNIEQIPSSESNLEELTQPTESQANDIGFKKVFKFVGFKFTVKKDKTEKPDTVQLLTVKKDEGEGAAGAGDHQDPSLGAGEAASKESEPKQSTEKPEETLKREQSHAEISPPAESGQAVEECKEEGEEKQEKEPSKSAESPTSPVTSETGSTFKKFFTQGWAGWRKKTSFRKPKEDEVEASEKKKEQEPEKVDTEEDGKAEVASEKLTASEQAHPQEPAESAHEPRLSAEYEKVELPSEEQVSGSQGPSEEKPAPLATEVFDEKIEVHQEEVVAEVHVSTVEERTEEQKTEVEETAGSVPAEELVGMDAEPQEAEPAKELVKLKETCVSGEDPTQGADLSPDEKVLSKPPEGVVSEVEMLSSQERMKVQGSPLKKLFTSTGLKKLSGKKQKGKRGGGDEESGEHTQVPADSPDSQEEQKGESSASSPEEPEEITCLEKGLAEVQQDGEAEEGATSDGEKKREGVTPWASFKKMVTPKKRVRRPSESDKEDELDKVKSATLSSTESTASEMQEEMKGSVEEPKPEEPKRKVDTSVSWEALICVGSSKKRARRRSSSDEEGGPKAMGGDHQKADEAGKDKETGTDGILAGSQEHDPGQGSSSPEQAGSPTEGEGVSTWESFKRLVTPRKKSKSKLEEKSEDSIAGSGVEHSTPDTEPGKEESWVSIKKFIPGRRKKRPDGKQEQAPVEDAGPTGANEDDSDVPAVVPLSEYDAVEREKMEAQQAQKGAEQPEQKAATEVSKELSESQVHMMAAAVADGTRAATIIEERSPSWISASVTEPLEQVEAEAALLTEEVLEREVIAEEEPPTVTEPLPENREARGDTVVSEAELTPEAVTAAETAGPLGSEEGTEASAAEETTEMVSAVSQLTDSPDTTEEATPVQEVEGGVPDIEEQERRTQEVLQAVAEKVKEESQLPGTGGPEDVLQPVQRAEAERPEEQAEASGLKKETDVVLKVDAQEAKTEPFTQGKVVGQTTPESFEKAPQVTESIESSELVTTCQAETLAGVKSQEMVMEQAIPPDSVETPTDSETDGSTPVADFDAPGTTQKDEIVEIHEENEVHLVPVRGTEAEAVPAQKERPPAPSSFVFQEETKEQSKMEDTLEHTDKEVSVETVSILSKTEGTQEADQYADEKTKDVPFFEGLEGSIDTGITVSREKVTEVALKGEGTEEAECKKDDALELQSHAKSPPSPVEREMVVQVEREKTEAEPTHVNEEKLEHETAVTVSEEVSKQLLQTVNVPIIDGAKEVSSLEGSPPPCLGQEEAVCTKIQVQSSEASFTLTAAAEEEKVLGETANILETGETLEPAGAHLVLEEKSSEKNEDFAAHPGEDAVPTGPDCQAKSTPVIVSATTKKGLSSDLEGEKTTSLKWKSDEVDEQVACQEVKVSVAIEDLEPENGILELETKSSKLVQNIIQTAVDQFVRTEETATEMLTSELQTQAHVIKADSQDAGQETEKEGEEPQASAQDETPITSAKEESESTAVGQAHSDISKDMSEASEKTMTVEVEGSTVNDQQLEEVVLPSEEEGGGAGTKSVPEDDGHALLAERIEKSLVEPKEDEKGDDVDDPENQNSALADTDASGGLTKESPDTNGPKQKEKEDAQEVELQEGKVHSESDKAITPQAQEELQKQERESAKSELTES
binding result: binds
